Data published in paper PMC8480667 (The Journal of Experimental Medicine, 2021).

Legend:
[1] = molecular target: rodent α1β3γ2 GABAA receptor on COS7 cells (Rattus norvegicus (alpha1, beta3); …, UniProt P62813;P63079;P18508); assay: immunostaining of cells or tissue
[2] = molecular target: rodent α1β3 GABAA receptor on COS7 cells (Rattus norvegicus, UniProt P62813;P63079); assay: immunostaining of cells or tissue
[3] = molecular target: rodent GABAA receptor β3 subunit alone on COS7 cells (Rattus norvegicus, UniProt P63079); assay: immunostaining of cells or tissue
Sequence of rodent GABAA receptor β3 subunit alone on COS7 cells (P63079 26-473): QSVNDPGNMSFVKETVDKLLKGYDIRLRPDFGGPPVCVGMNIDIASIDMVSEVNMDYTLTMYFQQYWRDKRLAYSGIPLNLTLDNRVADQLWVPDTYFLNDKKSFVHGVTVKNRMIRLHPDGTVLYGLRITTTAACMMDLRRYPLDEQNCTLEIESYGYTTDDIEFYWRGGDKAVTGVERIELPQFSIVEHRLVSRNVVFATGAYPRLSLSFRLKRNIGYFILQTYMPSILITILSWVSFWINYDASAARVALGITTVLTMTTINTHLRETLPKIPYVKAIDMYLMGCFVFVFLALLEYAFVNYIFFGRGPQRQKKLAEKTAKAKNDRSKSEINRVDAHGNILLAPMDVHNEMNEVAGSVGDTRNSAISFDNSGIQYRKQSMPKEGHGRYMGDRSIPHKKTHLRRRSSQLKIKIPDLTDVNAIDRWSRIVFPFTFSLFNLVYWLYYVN

[4] = molecular target: rodent GABAA receptor γ2 subunit alone on COS7 cells (Rattus norvegicus (paper: rodent), UniProt P18508); assay: immunostaining of cells or tissue
Sequence of rodent GABAA receptor γ2 subunit alone on COS7 cells (P18508 39-466): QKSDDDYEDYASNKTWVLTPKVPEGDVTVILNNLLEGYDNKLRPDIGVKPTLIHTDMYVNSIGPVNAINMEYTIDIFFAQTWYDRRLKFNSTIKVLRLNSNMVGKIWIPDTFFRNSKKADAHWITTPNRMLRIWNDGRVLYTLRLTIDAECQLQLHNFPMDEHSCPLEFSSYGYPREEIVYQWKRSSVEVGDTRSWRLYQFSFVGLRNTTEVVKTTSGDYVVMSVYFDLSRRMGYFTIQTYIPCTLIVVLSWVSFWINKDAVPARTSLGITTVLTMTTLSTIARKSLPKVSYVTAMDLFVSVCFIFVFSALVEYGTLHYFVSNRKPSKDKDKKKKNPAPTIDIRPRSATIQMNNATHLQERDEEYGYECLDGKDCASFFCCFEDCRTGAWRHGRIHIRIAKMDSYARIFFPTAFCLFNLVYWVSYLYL

[5] = molecular target: rodent α2β3γ2 GABAA receptor on COS7 cells (Rattus norvegicus (paper: rodent), UniProt P23576;P63079;P18508); assay: immunostaining of cells or tissue
Sequence of rodent α2β3γ2 GABAA receptor on COS7 cells (P23576 29-451, chain 1 of 3): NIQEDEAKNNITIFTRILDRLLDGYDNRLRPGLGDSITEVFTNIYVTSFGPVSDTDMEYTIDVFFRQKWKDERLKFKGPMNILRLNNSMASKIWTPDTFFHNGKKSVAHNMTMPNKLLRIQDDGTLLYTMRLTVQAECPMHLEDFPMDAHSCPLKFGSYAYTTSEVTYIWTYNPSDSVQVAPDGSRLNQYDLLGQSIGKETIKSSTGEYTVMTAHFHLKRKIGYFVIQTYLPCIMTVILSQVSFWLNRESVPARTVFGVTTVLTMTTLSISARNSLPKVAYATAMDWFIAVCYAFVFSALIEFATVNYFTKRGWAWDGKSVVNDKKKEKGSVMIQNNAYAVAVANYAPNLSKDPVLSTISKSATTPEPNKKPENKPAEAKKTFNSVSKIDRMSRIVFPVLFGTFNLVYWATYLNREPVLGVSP
Sequence of rodent α2β3γ2 GABAA receptor on COS7 cells (P63079 26-473, chain 2 of 3): as the sequence (P63079 26-473) above
Sequence of rodent α2β3γ2 GABAA receptor on COS7 cells (P18508 39-466, chain 3 of 3): as the sequence (P18508 39-466) above

[6] = molecular target: rodent α3β3γ2 GABAA receptor on COS7 cells (Rattus norvegicus (α3 rat; β3, γ2 …, UniProt P20236;P63079;P18508); assay: immunostaining of cells or tissue
[7] = molecular target: rodent α4β3γ2 GABAA receptor on COS7 cells (Rattus norvegicus (α4 rat; β3, γ2 …, UniProt P28471;P63079;P18508); assay: immunostaining of cells or tissue
Sequence of rodent α4β3γ2 GABAA receptor on COS7 cells (Rattus norvegicus (P28471 36-552, chain 1 of 3): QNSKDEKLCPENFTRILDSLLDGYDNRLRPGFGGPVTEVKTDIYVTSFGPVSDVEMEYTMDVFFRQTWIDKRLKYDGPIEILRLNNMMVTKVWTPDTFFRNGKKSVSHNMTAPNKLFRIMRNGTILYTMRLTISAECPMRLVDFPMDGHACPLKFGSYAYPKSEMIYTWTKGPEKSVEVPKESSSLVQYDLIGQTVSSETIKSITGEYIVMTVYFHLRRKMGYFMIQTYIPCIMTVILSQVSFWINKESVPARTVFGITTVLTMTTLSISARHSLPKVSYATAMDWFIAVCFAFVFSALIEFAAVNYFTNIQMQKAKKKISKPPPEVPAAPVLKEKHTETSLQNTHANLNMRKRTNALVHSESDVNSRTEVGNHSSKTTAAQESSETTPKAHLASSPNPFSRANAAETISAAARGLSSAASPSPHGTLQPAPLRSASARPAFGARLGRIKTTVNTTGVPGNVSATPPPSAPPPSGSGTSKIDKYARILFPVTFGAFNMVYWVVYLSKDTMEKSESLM
Sequence of rodent α4β3γ2 GABAA receptor on COS7 cells (Rattus norvegicus (P63079 26-473, chain 2 of 3): as the sequence (P63079 26-473) above
Sequence of rodent α4β3γ2 GABAA receptor on COS7 cells (Rattus norvegicus (P18508 39-466, chain 3 of 3): as the sequence (P18508 39-466) above

[8] = molecular target: rodent α5β3γ2 GABAA receptor on COS7 cells (Rattus norvegicus (paper: rodent), UniProt P19969;P63079;P18508); assay: immunostaining of cells or tissue
[9] = molecular target: rat α1β3γ2 GABAA receptor on HEK293T cells (Rattus norvegicus, UniProt P62813;P63079;P18508); assay: flow cytometry on cells
[10] = molecular target: human α1β3γ2 GABAA receptor on HEK293T cells (Homo sapiens, UniProt P14867;P28472;P18507); assay: flow cytometry on cells
Sequence of human α1β3γ2 GABAA receptor on HEK293T cells (P14867 28-456, chain 1 of 3): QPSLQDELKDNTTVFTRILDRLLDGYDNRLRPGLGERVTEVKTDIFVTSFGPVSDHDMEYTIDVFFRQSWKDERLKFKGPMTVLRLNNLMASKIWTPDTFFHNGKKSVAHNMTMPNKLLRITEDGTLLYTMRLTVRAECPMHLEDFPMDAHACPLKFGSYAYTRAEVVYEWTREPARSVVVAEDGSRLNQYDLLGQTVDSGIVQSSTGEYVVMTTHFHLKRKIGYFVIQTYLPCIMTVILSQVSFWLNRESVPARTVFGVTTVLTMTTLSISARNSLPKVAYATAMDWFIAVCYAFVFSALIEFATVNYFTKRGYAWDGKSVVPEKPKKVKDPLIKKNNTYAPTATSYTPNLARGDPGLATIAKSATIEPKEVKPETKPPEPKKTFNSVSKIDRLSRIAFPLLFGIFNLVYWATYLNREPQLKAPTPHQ
Sequence of human α1β3γ2 GABAA receptor on HEK293T cells (P28472 26-473, chain 2 of 3): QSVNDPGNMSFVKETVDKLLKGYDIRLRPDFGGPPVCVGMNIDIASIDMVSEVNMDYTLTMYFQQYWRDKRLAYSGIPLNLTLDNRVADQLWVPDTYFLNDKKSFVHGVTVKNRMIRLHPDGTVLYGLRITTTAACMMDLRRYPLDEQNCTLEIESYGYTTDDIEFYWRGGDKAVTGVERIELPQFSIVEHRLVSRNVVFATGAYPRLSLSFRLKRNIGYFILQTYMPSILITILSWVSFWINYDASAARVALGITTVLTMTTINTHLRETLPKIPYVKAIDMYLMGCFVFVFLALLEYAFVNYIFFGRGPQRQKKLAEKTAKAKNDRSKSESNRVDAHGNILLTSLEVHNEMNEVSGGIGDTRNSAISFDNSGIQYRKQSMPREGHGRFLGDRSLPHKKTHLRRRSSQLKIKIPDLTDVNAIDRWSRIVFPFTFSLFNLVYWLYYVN
Sequence of human α1β3γ2 GABAA receptor on HEK293T cells (P18507 40-475, chain 3 of 3): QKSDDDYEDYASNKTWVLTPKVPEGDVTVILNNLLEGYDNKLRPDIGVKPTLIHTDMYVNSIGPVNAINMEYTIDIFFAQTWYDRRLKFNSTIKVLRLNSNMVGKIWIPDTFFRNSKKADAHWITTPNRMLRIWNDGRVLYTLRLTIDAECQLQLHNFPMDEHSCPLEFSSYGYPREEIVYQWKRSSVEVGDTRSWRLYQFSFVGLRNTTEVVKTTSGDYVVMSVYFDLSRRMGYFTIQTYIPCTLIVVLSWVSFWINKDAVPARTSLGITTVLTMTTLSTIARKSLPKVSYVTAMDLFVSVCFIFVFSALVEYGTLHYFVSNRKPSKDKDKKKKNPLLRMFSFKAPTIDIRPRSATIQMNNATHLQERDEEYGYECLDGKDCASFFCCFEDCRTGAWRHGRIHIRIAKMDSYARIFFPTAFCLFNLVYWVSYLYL

[11] = molecular target: rat α1β3 GABAA receptor on HEK293T cells (Rattus norvegicus, UniProt P62813;P63079); assay: immunostaining of cells or tissue

Binder	binding result [1]	binding result [2]	binding result [3]	binding result [4]	binding result [5]	binding result [6]	binding result [7]	binding result [8]	binding result [9]	binding result [10]	binding result [11]
human monoclonal GABAAR antibody #113-175 (antibody, V domains shown) VH: EVQLLESGEGLVQPGGSLRLSCAASGFTFKTYAMSWVRQAPGKGLEWVSAISGSGASTYYADFVEGRFTISRDNSKNTLYLQMNSLRAEDTAVYYCAKEPPAMVWFGGGYFDYWGQGTLVTVSS VL: EIVLTQSPATLSLSPGERATLSCRASQSVSSYLAWYQQKPGQAPRLLIYDASNRATGIPARFSGSGSGTDFTLTISSLEPEDFAVYYCQQRSNWPPYSFGQGTKLEIK	binds	no binding (tested: 5 µg/ml)	no binding (tested: 5 µg/ml)	no binding (tested: 5 µg/ml)	no binding (tested: 5 µg/ml)	no binding (tested: 5 µg/ml)	no binding (tested: 5 µg/ml)	no binding (tested: 5 µg/ml)	binds	binds	no binding
human monoclonal GABAAR antibody #113-115 (antibody, V domains shown) VH: QVQLVQSGAEVKKPGASVKVSCKASGYTFISYDINWVRQATGQGLEWMGGMDPKSGNTGYAQKFQGRVTMTTNTAISTAYMELSSLRSEDTAVYYCVRGEQSYDRTGYSDWFDPWGQGTLVTVSS VL: not shown	binds	binds	no binding (tested: 5 µg/ml)	no binding (tested: 5 µg/ml)	no binding (tested: 5 µg/ml)	no binding (tested: 5 µg/ml)	no binding (tested: 5 µg/ml)	no binding (tested: 5 µg/ml)	binds	binds	binds
